This passage reports abundance fitness results from the Human Domainome abundance scans (Beltran et al. 2025).

± gives the uncertainty stated by the source.

The data set can be described thus: abundance fitness (aPCA) (normalised: wild type 0, dead -1); higher = more abundant; growth selection in yeast, the domain comes from the species named. Particulars: Homo sapiens.
The substance “Lipoamide acyltransferase component of branched-chain alpha-keto acid dehydrogenase complex, mitochondrial A173C, P11182” registered an abundance fitness of -0.163 ± 0.092.
On to “Lipoamide acyltransferase component of branched-chain alpha-keto acid dehydrogenase complex, mitochondrial A173D, P11182”, for which the abundance fitness is -0.296 ± 0.067.
The figure for “Lipoamide acyltransferase component of branched-chain alpha-keto acid dehydrogenase complex, mitochondrial A173E, P11182” is -0.219 ± 0.07; for “Lipoamide acyltransferase component of branched-chain alpha-keto acid dehydrogenase complex, mitochondrial A173F, P11182” it is -0.439 ± 0.096.
In the case of “Lipoamide acyltransferase component of branched-chain alpha-keto acid dehydrogenase complex, mitochondrial A173G, P11182”, the abundance fitness is -0.287 ± 0.036.
Consider “Lipoamide acyltransferase component of branched-chain alpha-keto acid dehydrogenase complex, mitochondrial A173K, P11182”, for which the abundance fitness was -0.391 ± 0.068.
Substance “Lipoamide acyltransferase component of branched-chain alpha-keto acid dehydrogenase complex, mitochondrial A173L, P11182” yielded an abundance fitness of -0.411 ± 0.058.
The substance “Lipoamide acyltransferase component of branched-chain alpha-keto acid dehydrogenase complex, mitochondrial A173M, P11182” displayed an abundance fitness of -0.135 ± 0.057.
“Lipoamide acyltransferase component of branched-chain alpha-keto acid dehydrogenase complex, mitochondrial A173N, P11182” had an abundance fitness of -0.424 ± 0.14.
With “Lipoamide acyltransferase component of branched-chain alpha-keto acid dehydrogenase complex, mitochondrial A173P, P11182”, the abundance fitness is -0.406 ± 0.087.
The same measure for “Lipoamide acyltransferase component of branched-chain alpha-keto acid dehydrogenase complex, mitochondrial A173Q, P11182”: -0.441 ± 0.048; for “Lipoamide acyltransferase component of branched-chain alpha-keto acid dehydrogenase complex, mitochondrial A173R, P11182”: -0.608 ± 0.04; for “Lipoamide acyltransferase component of branched-chain alpha-keto acid dehydrogenase complex, mitochondrial A173S, P11182”: -0.186 ± 0.046.
“Lipoamide acyltransferase component of branched-chain alpha-keto acid dehydrogenase complex, mitochondrial A173T, P11182” gave an abundance fitness of -0.05 ± 0.042.
In turn, “Lipoamide acyltransferase component of branched-chain alpha-keto acid dehydrogenase complex, mitochondrial A173V, P11182” showed an abundance fitness of -0.059 ± 0.054.
Consider “Lipoamide acyltransferase component of branched-chain alpha-keto acid dehydrogenase complex, mitochondrial A173W, P11182”, for which the abundance fitness was -0.279 ± 0.071.
For the substance “Lipoamide acyltransferase component of branched-chain alpha-keto acid dehydrogenase complex, mitochondrial A173Y, P11182”, the abundance fitness is -0.153 ± 0.19.
The figure for “Lipoamide acyltransferase component of branched-chain alpha-keto acid dehydrogenase complex, mitochondrial A176C, P11182” is -0.173 ± 0.051.
